This note sets out measurements from patent publication US20160185865A1.

As a reminder, the EC50 is the concentration at which the effect is half-maximal.

The target in this assay is human CC chemokine receptor 4 (CCR4) (human) (UniProt P51679). The experiment in a line: binding curve of FIG. 20B; cells not given.
Chain of human CC chemokine receptor 4 (CCR4) (human) (P51679 whole entry): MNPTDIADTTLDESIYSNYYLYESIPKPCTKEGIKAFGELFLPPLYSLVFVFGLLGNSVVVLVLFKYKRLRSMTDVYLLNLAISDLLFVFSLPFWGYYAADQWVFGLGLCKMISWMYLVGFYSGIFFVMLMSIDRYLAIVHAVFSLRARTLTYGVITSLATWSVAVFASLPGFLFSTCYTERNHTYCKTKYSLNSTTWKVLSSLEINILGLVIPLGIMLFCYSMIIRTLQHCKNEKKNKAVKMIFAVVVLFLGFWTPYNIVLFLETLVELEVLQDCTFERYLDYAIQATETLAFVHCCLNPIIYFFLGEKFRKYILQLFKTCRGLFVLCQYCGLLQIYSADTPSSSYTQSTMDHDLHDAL

B1: KM2760 (anti-CCR4 chimeric antibody) (antibody, from another filing, V domains shown)
VH: EVQLVESGGDLMKPGGSLKISCAASGFIFSNYGMSWVRQTPDMRLEWVATISSASTYSYYPDSVKGRFTISRDNAENSLYLQMNSLRSEDTGIYYCGRHSDGNFAFGYWGRGTLVTVSA
VL: DVLMTQTPLSLPVSLGDQASISCRSSRNIVHINGDTYLEWYLQRPGQSPKLLIYKVSNRFSGVPDRFSGSGSGTDFTLKISRVEAEDLGVYYCFQGSLLPWTFGGGTRLEIRR
B1: the EC50 turned out to be 5.07 nM.
